Experimental data published in patent US20230287457.

System: Nla type I-C Cascade + Cas3 expressed in E. coli (Neisseria lactamica)
Experiment: cell_activity
Settings: PAM 5'-TTC; E. coli plasmid interference

“native CRISPR spacer 1 crRNA ; spacer 1 target with 5'-TTC PAM” showed an activity (fold reduction in colony count) of 1000.
